Test: soluble on expression in E. coli; label from the status in PepcDB or PDB records

Sequence | soluble on expression in E. coli
MHSDEEIFKDTTTKALLQLLKKDIDFHEYCYQEIFPRGKEIKMNDNKNFKIYLVESGYFAYCLKNEYGDFGIISFVGGEIAINLIPLIKEEPEDAFLRCLTQVRCWVLDPDFVGRVLDENNQKAKFLLSNLLYTRKVYFKASKRTFMKKELRIRACLKEIGLYMGRVTKDKDFILPDEINNSILAQYANTTREYTNIIVLKLRKEGILDDSHKPWVIKKIDEL | not soluble
LLQHAHNPVNWYSWSPEAFSKAKSEDKPIFLSIGYSTCHWCHVMERESFEDDDVAEVLNRSFVSIKVDREERPDIDEIYMNVCTAITGSGGWPLTIVMTPEQKPFFAGTYIPKNNRMGMQGLISLLENIEYQWKENQNELVEIGDKIVSSLNKDRKT | not soluble
MPDEIYLFTPKGKIFALPKNSTALDFAYAVHTDIGNHAVTSRVDKQLMPLRTKLSSGQTVEIITARSALPKPQWLEHHHHHH | not soluble
MPDSDTGSNMAHTMTAAVQQAQGVDNPDDLAAVAMALATGAVKGARGNSGVVLSQVLRGIAHHADSGRIDAHVIQEALRSSLDFVAAAISDPVEGTVITVLRAAAIAATNSEDRSLAAVVSVAAHAARIALAETPSQLQVLRDAKVVDAGGQGLVILLDCLEHVVTGTATSYDPHIIETTEQQQSHGTSGYLEVMCFIAGVEVSHLHDLLAPLGDCLVIGPISDTSATVHIHSTDAATVISTLYATGTITDLHIEVLPETPKVVHPKRIVLALTPPGDLAQLYTDAGALVVVRDGHHFAIARSTNLGQAETPLADGIEIVNELVARSHQSGAQEVILLPNGLLTTQEMAAVERSSQAFKQSITMLPTGSLVRGLAALSVHDPQQSLAVATYAMTEAMSGMRTAVIERAEHAALTPAGACAKGDLLVHLGTEPIAVAEQPEEALRIACRRLLDIGGEQILILARKELALTPDNHSLTGPHTDVEINQYDVDRLGALIEIGVE | not soluble
MVNNEYQQLNTLVESDDEADLVIANLVKQLNELKQILVSLDNQEASATAVTDKKEEEYNQNQSSFHNFSKETLQKQAKRGFLLLERCSLVGLQQLELEYVNLLGRSFDSYQQKTELLNNLKELVDEHFSDTEKIINTLEKIFDVIGGSEYTPVLNSFFNKLLSDPDPIQREIGLRQFIITLRQRFKKLSQKIDSSLKQIETEAKIATEQVQNSEVMFGPPDIANDHELNLNWPDSETDAILSSMENELEAALLAKHQEEPPLIVTPPSLIKPTVSQPEVEVVTPTNNTNFQPQVDLKPTDLKKQQKKKPLNFITRPVFKSNLPPKLSKDDIVHYAHQLLEKNTHNE | soluble
MSLIARRNPIEQLPAIAQDPDKFGVLLSAAEFRTHLVESIRQARKRIYLVALYLENDDAGREILTELYAAKQRNPGLEIHICVDWHRAQRGLIGAAESEGNAAMYRDFAQQHEHCIPVYGIPVRGREVFGVLHLKGFIIDDQVIYSGASLNNVYLQFHGRYRFDRYHTLENAELADSMVHFIQQEMLAHPAVNNLACGSKPTTKEIKSDIRQFRASLAQANYQFAKQKVNEGQVAVTPLVGLGRRRNRLNQSIIQLLASAKDEVFICTPYFNFPPSIAKEVKKALRRGVKVHIVIGDKTANDFYIAPEEPFKTIGGLPYLYELNLRRFAKANEAHIASRKLSIHLWKHENHSFHLKGIWVDKRYMLITGNNLNPRAWKLDLENAILIRDDYHHLTTKFEAEIDNILQHTQLICTYKQIEKPEHYPEKVQRLVRRIMRLKADRVLKQILEGHHHHHH | not soluble
MSLDDAKLTASKEAKRIVIQSIQRVATETAIENSVTVFHIESDEIKGRIIGREGRNIRALEAATGVEIVVDDTPEAIVLSAFDPVRREIARLALHQLVTDGRIHPARIEEVVSKVRKQVEEEIIETGKRTTIDLGIHGLHPELIRIIGKMKYRSSYGQNLLQHARETANLCAVMASELGLNPKKAKRAGLLHDIGKVPDEEPELPHALLGMKLAEKYKEKPDICNAIGAHHDETEMTSLLAPIVQVCDAISGARPGARREIVEAYIKRLNDLEQLAMAYPGVTKTYAIQAGRELRVIVGADKIDDKQTESLSGEIAKKIQDEMTYPGQVKITVIRETRAVSFAKEGHHHHHH | not soluble
GMFVWHEYENAAEAAQSLADAVADALQGALDEKGGAVLAVSGGRSPIAFFNALSQKDLDWKNVGITLADERIVPTNHADSNTGLVREYLLKNKAAAAVWIPMVEDGKTETELHPDAVVDYALKHYKQPDVLILGMGNDGHTASIFPKAPQFQTAIDGSAGVALVHTTPVTAPHERISMTLDAIAHTGHVFLAIQGEEKKAVFDQAAQGENREYPISLVLNHQGVNCHVFYAE | soluble
MPSMLERISKNLVKEIGSKDLTPVKYLLSATKLRQFVILRKKKDSRSSFWEQSDYVPVEFSLNDILEPSSSVLETVVTGPFHFSDIMIQKHKADMGVNVGIEVSVSGEASVDHGCSLEFQIVTIPSPNLEDFQKRKLLDPEPSFLKECRRRGDNLYVVTEAVELINNTVLYDSSSVNILGKIALWITYGKGQGQGESLRVKKKALTLQKGMVMAYKRKQLVIKEKAILISDDDEQRTFQDEYEISEMVGYCAARSEGLLPSFHTISPTLFNASSNDMKLKPELFLTQQFLSGHLPKYEQVHILPVGRIEEPFWQNFKHLQEEVFQKIKTLAQLSKDVQDVMFYSILAMLRDRGALQDLMNMLELDSSGHLDGPGGAILKKLQQDSNHAWFNPKDPILYLLEAIMVLSDFQHDLLACSMEKRILLQQQELVRSILEPNFRYPWSIPFTLKPELLAPLQSEGLAITYGLLEECGLRTELDNPRSTWDVEAKMPLSALYGTLSLLQQLAEA | soluble
MSNIVYLTVTGEQQGSISAGCGTSESTGNRWQSGHEDEIFTFSLLNNINNTGLGSQFHGITFCKLIDKSTPLFINSINNNEQLFMGFDFYRINRFGRLEKYYYIQLRGAFLSAIHHQIIENQLDTETITISYEFILCQHLIANTEFSYLALPENYNRLFLPNSKNQTNNRFKTLNSKAIGRLLAAGGVYNGNIEGFRDTAEKLGGDAIKGYDQILNEKTAGIAIATASILLTKRSNVDTYTEINSYLGKLRGQQKLLDGIDIIEIIYIKRPSKDLANLRKEFNKTVRKNFLIKLAKTSEASGRFNAEDLLRMRKGNVPLNYNVHHKLSLDDGGTNDFENLVLIENEPYHKVFTNMQSRIAKGILVGESKITPWAIPSGSIYPPMKNIMDHTK | not soluble
MSLNLRESFISKFAASFVKPRFEIWFAAVLIPENDQAFWVRYSTLNPRNNRDLFPMGTLWVSLFDRKNPKNHRTTTQSFPYEEVLIKEHAIEFPEASVGPDHMSGKIQTSMSEDLAWDLEFRHKLEPTGHLPRWLEKTPINHIWGTNRVSELFWTFVPKFDDDPDDWSMEIVTVRPQPFTPTLTFVTLLKRGIPIHQHSIFRSLRSSTKIEYPKLHFKTRLDDYEISVESEMDKDQIAGYIYRDPDGSPRYIEQSDIGNVKCVIRHRRKETVLNAKQAAGVEFHGLRPWRKDHEYLDPYQTEGHHHHHH | not soluble
MSLKWLKKQAELYPQKQFLNDSTFAQINQEVNKMAEHLAPLIDNQSRVALLSENSVEMAVVLFALLGLSKEVLLLNRHLTEYELADQIKELKIDKVFTSDLLTEKVTDSISFSEIWTSNPCPVSLSADFPDEKIAVIMNTSATTGKFKSVPITWGMISNHVKASKETLGAYDNDNWLVILPMFHVSGLSIIMRTLYNATSATVVDKFDENQLLEMINSGKINMVSLVPTLLTRIADKLHSNNLRLILLGGEFIPQPLIKKCQELGLPIYKTYGMTESFSQSVTFNILDFPDKTSSVGRPLPGVEIEIRQADLAGVGEIWLKSPMLMKAYLGQKPYGTAFETGDIGYLDTDGFLYLLNRRKDIIISGGENIYPKEIEDLVYSLPEIKECALVAKPDAKWGQVPILFVSGNISQEKLENFLTEKLAKYKRPQSITFMDELPKNASGKILRKELKEGHHHHHH | soluble
MGNIGSPPKFDEYPNGNEEPRRVLRLNVYFDNPVQNKDGAYDDRGGFWAPVDWWHRDAERWATLFAKGMRVAVRGHLERDDWTDGDGEPHTTYKVDARSVGILPYRLDAVHLSPLEHHHHHH | not soluble
MGSDKIHHHHHHLSIIEQYLSQAEALFQSKNYSSARMYARKVIKRDDKHLGALSLLGQIHLQQQQYNEAENYFATAAAVDPNAMPVLTGLLAIAEVKQDFFLAKTYLLQLINTQGNVETYQYKLGLVATKVGDMALAEQCFEWCVANDFSEPAVQLNLGHIYKAKGDTEKAANFYHQYNQLSPKQVGVGYWSLADLKQYRFSTDDLTLLQVFATDESLSKQNQALVYFALCKAYEQTQQIDKASESMLLANKIMTLHRPFKQAQFANIVLSLLGHTPSPHIDSLPTASQTPIFIVGMPRSGTTLVEQILACHTDVGATDELPFMERFALQMDMSGGYNARLSQLSASHIDQFRQRYLAEVNHYFSDAPTYVIDKNPNNFLHIGLIKTLFPQAKIINVVRNTVDNGLSVFKQFFSFGHDYSYSFAGISSYWQHYLDIMQHWDRLYPNEILHVCFEQLVREPESQIQRILDYCELTTQAQCFTFYESERAVLTPSASQVRQPMNLKAIGQADKYQAFIPEQIAELDAIAKKAALQFFG | not soluble
GPGSMRLALVGKRTHSLRDNGTPRMHAGDVFICISGSGCIGSIMCTYAQAKKASTGIVMIAGGVGDVPPKDSACATTTLLRSRDGLPWHLHGGGALGPVDGQPVRVRLVFAALFGRDALGGDAAGA | soluble
GSHMRRYIGVMMLTLSPSILAELQLREPSFPDVQHGVLIHKVILGSPAHRAGLRPGDVILAIGEQMVQNAEDVYEAVRTQSQLAVQIRRGRETLTLYVTPEVTEGGGWTMFWV | soluble
MGSDKIHHHHHHMRTIEDDAALKILADVIKIPSVNDHELTVAKYLQDLLAKYDISAKIHPITGDRANLVAEIGHGQPVLAVSGHMDVVAAGDLAAWDTDPFTLVEKSGQLFGRGVTDMKAGLVALVVAMINIQQQGGPKHGTIRLLATMGEEVGEAGSAAFYQQGAMQDAAGLLIAEPSTVYGTAAEQKGSCDLKLTSKGKAVHSSTPERGYNALVPLIKLLNEANDYFETIPAGEMGPVRFNIDVLNGGDQVNSLPDLATALVNVRTIPEYDNDQVTQKLADLIAAYNQQGADIKMTAIMNESPIATTADNRLVKLVQAIGKPYAGRDVVVASSPGITDASNLAKRQPADFPFAVYGPGNMTQHQVNESLPKQMFYDFIAIYQQLFTRFLAE | not soluble
PRTRECDYCGTDIEPGTGTMFVHKDGATTHFCSSKCENNADLGREARNLEWTDTARGEAGEAEDEA | soluble
MTEHRPAIELEEIPTLLERIEGYKGRSRLTQLAIKLNLLIFIRSSELRFARWSEIDFKSGLWVIPEQREAIKGIKHSDRGAKMRRKHYVPLCEQALVILGELKDLTYDVNGDDGFILTGCYDAMKPMSENTINKALRKMGYDTKTDLCGHGFRTLACSALIESGIWPEDVVELQMSHMEKNNVRAAYTHKAKHLEQRRLMLQWWADFLDANGSGMVRPFEFAQGATQYLEHHHHHH | not soluble
MGSDKIHHHHHHMKRKIIQQLKLWKDNPARKPLILLGARQVGKTWVMKHFGQTEFENVAYINCDVEPLAKELFAADYSIPRILLTLQAITGTKIEAGKTLIVFDELQEVERGLHSLKYFQENAPEYHVMAAGSLLGITLGKGQSFPVGKVNVMHLYPMDFEEFLMAAGETDLCDLLHQPDWEILKILSLKYVDLLRQYYYVGGMPEVVDCFFQHQNLQEVRDKQTEILDAYRRDISKHTTATESIRIGQVLQSLPSQLAKENKKFIYNVLKKGARATEYELAIQWLMDAGLVHKVSRIKELQMPVKFYEDLGAFKLFLLDCGLLGCMTEAPASQMLVGDNVFKEFKGAFTEQFVLQQLVAQGFSPYYWSSDKTPAEIDFVVQTEHRVIPVEVKAEENVRARSMSEYIKNHPDYQLKGLRISMMGYQDQEWMENIPLFAITKFFG | not soluble
GMLDNAIPQGFEDAVELRRKNRETVVKYMNTKGQDRLRRHELFVEDGCGGLWTTDTGSPIVIRGKDKLAEHAVWSLKCFPDWEWYNIKVFETDDPNHFWVECDGHGKILFPGYPEGYYENHFLHSFELDDGKIKRNREFMNVFQQLRALSIPVPQIKREGIPT | soluble
